This passage reports protein stability index results from the supplement of paper PMC10724198.

± gives the standard deviation of the averaged measurements.

This series relates to Saccharomyces cerevisiae. The series can be described thus: protein stability index of tFT-peptide fusion (C-terminal peptide) (PSI (0-1 scale)); higher = more stable (slower turnover). Particulars: temperature: 30 C. Here is the method: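 MPS profiling in S. cerevisiae of the yeast C-terminome library: the last 12 aa of each annotated ORF are fused to the C-terminus of a sfGFP-mCherry timer, after a GGGS linker. Cells are FACS-sorted into 8 mCherry/sfGFP bins and deep-sequenced. PSI runs from 0 (unstable) to 1 (stable); wild type and das1Δ backgrounds, two technical replicates each.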

[1] abbreviates: genetic background: das1 deletion.

EGIETTHNKRIR [AMA1 C-terminal 12 aa]: the protein stability index came out at 0.675 ± 0.018 under setting [1] and 0.666 ± 0.036 (genetic background: wild type).

As for EGKWEPAGEVHQ [SEC13 C-terminal 12 aa], the protein stability index reads like this: under setting [1], 0.706 ± 0.012; (genetic background: wild type) 0.7167 ± 0.0048.

In turn, EGVVLGQRRDIV [SCP1 C-terminal 12 aa] had a protein stability index under setting [1] of 0.696 ± 0.028 and a protein stability index (genetic background: wild type) of 0.672 ± 0.0097.

Take EHLWNCFFHGSD [IRC20 C-terminal 12 aa]: the protein stability index was 0.73 ± 0.012 under setting [1] and 0.731 ± 0.061 (genetic background: wild type).

As for EHVGKQCGYKYH [STP3 C-terminal 12 aa], the protein stability index came out at 0.705 ± 0.023 under setting [1] and 0.7096 ± 0.0013 (genetic background: wild type).

In the case of EIFNDFSKRCCF [CDC43 C-terminal 12 aa], the protein stability index reads like this: under setting [1], 0.7326 ± 0.0031; (genetic background: wild type) 0.73168 ± 0.00037.

As for EIMLGKNLLITS [YNL109W C-terminal 12 aa], the protein stability index runs as follows: under setting [1], 0.619 ± 0.0087; (genetic background: wild type) 0.503 ± 0.028.

As for EIVRNFSLFNMV [ARP3 C-terminal 12 aa], the protein stability index came out at 0.697 ± 0.031 under setting [1] and 0.6866 ± 0.0035 (genetic background: wild type).

Turning to EKANDIGFNKFR [RPS29A C-terminal 12 aa], the protein stability index runs as follows: under setting [1], 0.678 ± 0.014; (genetic background: wild type) 0.7106 ± 0.006.

EKDNSQKIEAKK [SDH4 C-terminal 12 aa]: the protein stability index under setting [1] came out at 0.69 ± 0.012 and the protein stability index (genetic background: wild type) is 0.697 ± 0.11.

On to EKEALWKFAKRL [ATP10 C-terminal 12 aa], for which the protein stability index is, setting by setting: under setting [1], 0.699 ± 0.032; (genetic background: wild type) 0.3037 ± 0.00067.

On to EKKYLNQSQNQA [BSD2 C-terminal 12 aa], for which the protein stability index is, setting by setting: under setting [1], 0.684 ± 0.035; (genetic background: wild type) 0.692 ± 0.059.

Consider EKLISLSQSMEN [ATP11 C-terminal 12 aa], for which the protein stability index by setting is: under setting [1], 0.718 ± 0.0096; (genetic background: wild type) 0.785 ± 0.11.

Regarding EKVTNTLSSLKF [LTV1 C-terminal 12 aa], the protein stability index by setting is: under setting [1], 0.694 ± 0.0074; (genetic background: wild type) 0.669 ± 0.017.

In turn, ELAKKWKQEQAL [CLF1 C-terminal 12 aa] registered a protein stability index under setting [1] of 0.676 ± 0.011 and a protein stability index (genetic background: wild type) of 0.667 ± 0.011.

In turn, ELFTILHDLTAA [TPS3 C-terminal 12 aa] came in with a protein stability index under setting [1] of 0.718 ± 0.086 and a protein stability index (genetic background: wild type) of 0.6612 ± 0.005.

ELPSYKKTSKQN [PSG1 C-terminal 12 aa]: the protein stability index under setting [1] amounted to 0.722 ± 0.03 and the protein stability index (genetic background: wild type) was determined as 0.701 ± 0.077.

For the sequence ELSMIMEHFSQQ [RPS12 C-terminal 12 aa], the protein stability index by setting is: under setting [1], 0.72 ± 0.02; (genetic background: wild type) 0.7056 ± 0.0036.

Consider ELTLFLSYKSYS [YGR045C C-terminal 12 aa], for which the protein stability index worked out at 0.683 ± 0.02 under setting [1] and 0.64 ± 0.017 (genetic background: wild type).

As to ELTRLVDSKRKR [HFA1 C-terminal 12 aa], the protein stability index by setting is: under setting [1], 0.717 ± 0.045; (genetic background: wild type) 0.667 ± 0.011.

Regarding ELWTLQAPELNL [YKL036C C-terminal 12 aa], the protein stability index under setting [1] is 0.72 ± 0.021 and the protein stability index (genetic background: wild type) came out at 0.702 ± 0.04.

Take “ENAGKIFFNETE [YHR213W-A C-terminal 12 aa]”: the protein stability index under setting [1] was 0.733 ± 0.029 and the protein stability index (genetic background: wild type) stood at 0.684 ± 0.033.

As to ENKPDSTFGIIL [YOR170W C-terminal 12 aa], the protein stability index by setting is: under setting [1], 0.718 ± 0.019; (genetic background: wild type) 0.749 ± 0.11.

With ENLITILDSNYI [ISR1 C-terminal 12 aa], the protein stability index runs as follows: under setting [1], 0.74 ± 0.0095; (genetic background: wild type) 0.696 ± 0.01.

As to ENLTQKKKQSAN [PCT1 C-terminal 12 aa], the protein stability index by setting is: under setting [1], 0.703 ± 0.0058; (genetic background: wild type) 0.65 ± 0.011.

Turning to ENRPGPYEFRET [FMP41 C-terminal 12 aa], the protein stability index was determined as 0.6916 ± 0.0065 under setting [1] and 0.779 ± 0.053 (genetic background: wild type).

As for EPKEIVDGKVLK [CAM1 C-terminal 12 aa], the protein stability index runs as follows: under setting [1], 0.692 ± 0.021; (genetic background: wild type) 0.708 ± 0.034.

Turning to EPTLKLSNIYRQ [YBR174C C-terminal 12 aa], the protein stability index was determined as 0.7092 ± 0.0033 under setting [1] and 0.71982 ± 0.00048 (genetic background: wild type).

EQDAILLKKHIS [NAT5 C-terminal 12 aa] registered a protein stability index under setting [1] of 0.714 ± 0.033 and a protein stability index (genetic background: wild type) of 0.3 ± 0.029.

For ERAIKTVRYLLY [YOL079W C-terminal 12 aa], the protein stability index runs as follows: under setting [1], 0.678 ± 0.008; (genetic background: wild type) 0.631 ± 0.021.

ERKLSTKKVSVE [YHR078W C-terminal 12 aa]: the protein stability index is 0.707 ± 0.052 under setting [1] and 0.7 ± 0.032 (genetic background: wild type).

Regarding ERTKLREKLEII [PXA1 C-terminal 12 aa], the protein stability index is 0.7064 ± 0.0059 under setting [1] and 0.677 ± 0.077 (genetic background: wild type).

Turning to ESDLAAARSEDK [VTH1 C-terminal 12 aa], the protein stability index by setting is: under setting [1], 0.7237 ± 0.0031; (genetic background: wild type) 0.659 ± 0.012.

For the sequence ESEKELYNATRA [NHP6B C-terminal 12 aa], the protein stability index reads like this: under setting [1], 0.68817 ± 0.00058; (genetic background: wild type) 0.716 ± 0.034.

In turn, ESNSALDFTRLA [SSU1 C-terminal 12 aa] registered a protein stability index under setting [1] of 0.707 ± 0.025 and a protein stability index (genetic background: wild type) of 0.712 ± 0.059.

Consider ESQPAPKEAPDY [SNP1 C-terminal 12 aa], for which the protein stability index was 0.674 ± 0.028 under setting [1] and 0.702 ± 0.022 (genetic background: wild type).

For the sequence ETLEAETVKIDI [POL31 C-terminal 12 aa], the protein stability index is 0.69571 ± 0.00029 under setting [1] and 0.7012 ± 0.0013 (genetic background: wild type).

Turning to EVDDDGEIEGLF [MIS1 C-terminal 12 aa], the protein stability index came out at 0.7072 ± 0.0051 under setting [1] and 0.684 ± 0.022 (genetic background: wild type).

As for EVDIGLYNCADY [ADE4 C-terminal 12 aa], the protein stability index is, setting by setting: under setting [1], 0.714 ± 0.05; (genetic background: wild type) 0.667 ± 0.02.

In the case of EVISSYQIDMIV [HIM1 C-terminal 12 aa], the protein stability index under setting [1] was 0.657 ± 0.013 and the protein stability index (genetic background: wild type) turned out to be 0.62 ± 0.0077.

For the sequence EVLHEWKSHINQ [BIO3 C-terminal 12 aa], the protein stability index by setting is: under setting [1], 0.743 ± 0.017; (genetic background: wild type) 0.6763 ± 0.0056.

Sequence EVVRFYTIEAKL [AAT2 C-terminal 12 aa] registered a protein stability index under setting [1] of 0.771 ± 0.032 and a protein stability index (genetic background: wild type) of 0.724 ± 0.085.

As for EWEEKQGMDFVR [GPN2 C-terminal 12 aa], the protein stability index runs as follows: under setting [1], 0.7083 ± 0.0027; (genetic background: wild type) 0.685 ± 0.0095.

As to EYSWEKPKKLEF [SAM2 C-terminal 12 aa], the protein stability index came to 0.7075 ± 0.0037 under setting [1] and 0.698 ± 0.035 (genetic background: wild type).

FALVLAYMRLLT [FMP32 C-terminal 12 aa]: the protein stability index was 0.4219 ± 0.0012 under setting [1] and 0.237 ± 0.012 (genetic background: wild type).

As for FDELFISTEVEL [TCA17 C-terminal 12 aa], the protein stability index under setting [1] was 0.718 ± 0.018 and the protein stability index (genetic background: wild type) was found to be 0.6851 ± 0.0011.

FDVIKECQTLSN [PUG1 C-terminal 12 aa] gave a protein stability index under setting [1] of 0.683 ± 0.037 and a protein stability index (genetic background: wild type) of 0.6484 ± 0.0017.

Consider FELAKVSFDNKR [YKR104W C-terminal 12 aa], for which the protein stability index reads like this: under setting [1], 0.736 ± 0.031; (genetic background: wild type) 0.707 ± 0.095.

For FERNYFPYSAVY [CLG1 C-terminal 12 aa], the protein stability index was 0.6077 ± 0.0039 under setting [1] and 0.608 ± 0.018 (genetic background: wild type).

FEYEPPKFNLSE [GTB1 C-terminal 12 aa]: the protein stability index under setting [1] is 0.689 ± 0.025 and the protein stability index (genetic background: wild type) amounted to 0.659 ± 0.037.

With FFSFIITIPFMV [YNL146W C-terminal 12 aa], the protein stability index reads like this: under setting [1], 0.305 ± 0.01; (genetic background: wild type) 0.2042 ± 0.0015.

Turning to FFTTCTIGCYDA [BUD7 C-terminal 12 aa], the protein stability index reads like this: under setting [1], 0.6871 ± 0.0048; (genetic background: wild type) 0.6861 ± 0.0047.

For FGKRRFFYRDLA [YPR146C C-terminal 12 aa], the protein stability index by setting is: under setting [1], 0.6901 ± 0.0029; (genetic background: wild type) 0.693 ± 0.014.

Consider FHDWFIRQFVSN [SNO1 C-terminal 12 aa], for which the protein stability index came to 0.73 ± 0.0093 under setting [1] and 0.321 ± 0.034 (genetic background: wild type).

With FIWQNVLMWLMG [YIF1 C-terminal 12 aa], the protein stability index by setting is: under setting [1], 0.7 ± 0.011; (genetic background: wild type) 0.54 ± 0.017.

As to FKKSYKGVSKNL [MGM1 C-terminal 12 aa], the protein stability index by setting is: under setting [1], 0.704 ± 0.013; (genetic background: wild type) 0.695 ± 0.022.

As to FLGIELHAFFVS [YOL035C C-terminal 12 aa], the protein stability index turned out to be 0.6355 ± 0.0029 under setting [1] and 0.635 ± 0.058 (genetic background: wild type).

Consider “FLPFFLRFLCIN [YML116W-A C-terminal 12 aa]”, for which the protein stability index by setting is: under setting [1], 0.618 ± 0.021; (genetic background: wild type) 0.206 ± 0.021.

Take FQVVGKKKGKRF [SYH1 C-terminal 12 aa]: the protein stability index by setting is: under setting [1], 0.715 ± 0.009; (genetic background: wild type) 0.688 ± 0.049.

In the case of FRGKRYHTIKRQ [MSS51 C-terminal 12 aa], the protein stability index is 0.709 ± 0.0045 under setting [1] and 0.643 ± 0.035 (genetic background: wild type).

Consider FRLQEEQTNMRS [MSM1 C-terminal 12 aa], for which the protein stability index by setting is: under setting [1], 0.713 ± 0.02; (genetic background: wild type) 0.758 ± 0.02.

Turning to “FRQSWQIDIGTW [YAL037C-B C-terminal 12 aa]”, the protein stability index was found to be 0.7097 ± 0.0042 under setting [1] and 0.676 ± 0.017 (genetic background: wild type).

Take “FRVVLNAQLNIQ [YOR108C-A C-terminal 12 aa]”: the protein stability index reads like this: under setting [1], 0.69 ± 0.036; (genetic background: wild type) 0.674 ± 0.006.

For FSAVSSWLSFIF [YNL046W C-terminal 12 aa], the protein stability index reads like this: under setting [1], 0.772 ± 0.033; (genetic background: wild type) 0.725 ± 0.013.

FSCHSFEYLARR [YDR401W C-terminal 12 aa] yielded a protein stability index under setting [1] of 0.701 ± 0.013 and a protein stability index (genetic background: wild type) of 0.677 ± 0.047.

FSDLFSYSKSLV [ENT5 C-terminal 12 aa]: the protein stability index runs as follows: under setting [1], 0.705 ± 0.04; (genetic background: wild type) 0.744 ± 0.013.

Turning to FSSSRDDISFDI [DRS2 C-terminal 12 aa], the protein stability index was determined as 0.7 ± 0.023 under setting [1] and 0.664 ± 0.0014 (genetic background: wild type).
